Measurements as given in the supplement of paper PMC10567573.

B1: TIA1 (parent)
chain: TYECRCIGEEKEMWNFGEKYARF

Variants of: B1
Assay: protein stability index of a GFP-peptide fusion (GPS, HEK-293T) (PSI 1-6); higher = more stable
Conditions: c terminus: native
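Also: lentivirally expressed fusions sorted by FACS into six bins by GFP to DsRed ratio, PSI derived from sequencing read proportions per bin multiplied by bin number.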

First: TYECRCIGEEQEMWNFGEKYARF [K11Q]
Second: TYECRCIGEENEMWNFGEKYARF [K11N]
The protein stability index of the first is lower: 1.84 for the first, 2.69 for the second.

Compared with TYECRCIGEEHEMWNFGEKYARF [K11H], TYECRCIGEEMEMWNFGEKYARF [K11M] is higher in protein stability index: 1.78 for the first, 1.88 for the second.

Compared with TYECRCIGEEFEMWNFGEKYARF [K11F], TYECRCIGEEKNMWNFGEKYARF [E12N] is higher in protein stability index: 1.53 for the first, 2.08 for the second.

First: TYECRCIGEEKQMWNFGEKYARF [E12Q]
Second: TYECRCIGEEKWMWNFGEKYARF [E12W]
The protein stability index of the first is lower: 2.3 for the first, 2.5 for the second.

Going from TYECRCIGEEKPMWNFGEKYARF [E12P] to TYECRCIGEEKHMWNFGEKYARF [E12H], the protein stability index falls from 2.35 to 2.03.

Going from TYECRCIGEEKLMWNFGEKYARF [E12L] to TYECRCIGEEKTMWNFGEKYARF [E12T], the protein stability index falls from 2.33 to 2.19.

First: TYECRCIGEEKYMWNFGEKYARF [E12Y]
Second: TYECRCIGEEKRMWNFGEKYARF [E12R]
The protein stability index of the first is lower: 1.3 for the first, 1.42 for the second.

Compared with TYECRCIGEEKKMWNFGEKYARF [E12K], TYECRCIGEEKIMWNFGEKYARF [E12I] is lower in protein stability index: 1.4 for the first, 1.39 for the second.

First: TYECRCIGEEKCMWNFGEKYARF [E12C]
Second: TYECRCIGEEKMMWNFGEKYARF [E12M]
The protein stability index of the first is higher: 2.08 for the first, 1.88 for the second.

Going from TYECRCIGEEKVMWNFGEKYARF [E12V] to TYECRCIGEEKGMWNFGEKYARF [E12G], the protein stability index rises from 1.59 to 2.71.

First: TYECRCIGEEKSMWNFGEKYARF [E12S]
Second: TYECRCIGEEKDMWNFGEKYARF [E12D]
The protein stability index of the first is higher: 2.21 for the first, 1.91 for the second.

Going from TYECRCIGEEKFMWNFGEKYARF [E12F] to TYDCRCIGEEKEMWNFGEKYARF [E3D], the protein stability index falls from 3.56 to 3.24.

First: TYGCRCIGEEKEMWNFGEKYARF [E3G]
Second: TYHCRCIGEEKEMWNFGEKYARF [E3H]
The protein stability index of the first is higher: 2.14 for the first, 1.8 for the second.

Going from TYLCRCIGEEKEMWNFGEKYARF [E3L] to TYMCRCIGEEKEMWNFGEKYARF [E3M], the protein stability index rises from 2.42 to 2.49.

Going from TYSCRCIGEEKEMWNFGEKYARF [E3S] to TYNCRCIGEEKEMWNFGEKYARF [E3N], the protein stability index rises from 1.94 to 1.98.

First: TYCCRCIGEEKEMWNFGEKYARF [E3C]
Second: TYACRCIGEEKEMWNFGEKYARF [E3A]
The protein stability index of the first is higher: 3.65 for the first, 2.23 for the second.

First: TYQCRCIGEEKEMWNFGEKYARF [E3Q]
Second: TYRCRCIGEEKEMWNFGEKYARF [E3R]
The protein stability index of the first is higher: 2.61 for the first, 1 for the second.

Going from TYYCRCIGEEKEMWNFGEKYARF [E3Y] to TYTCRCIGEEKEMWNFGEKYARF [E3T], the protein stability index rises from 2.18 to 3.76.

First: TYKCRCIGEEKEMWNFGEKYARF [E3K]
Second: TYPCRCIGEEKEMWNFGEKYARF [E3P]
The protein stability index of the first is lower: 1.66 for the first, 2.47 for the second.

First: TYECRCRGEEKEMWNFGEKYARF [I7R]
Second: TYECRCPGEEKEMWNFGEKYARF [I7P]
The protein stability index of the first is lower: 1.8 for the first, 3.87 for the second.

Compared with TYECRCKGEEKEMWNFGEKYARF [I7K], TYECRCVGEEKEMWNFGEKYARF [I7V] is lower in protein stability index: 2.18 for the first, 1.76 for the second.

Compared with TYECRCFGEEKEMWNFGEKYARF [I7F], TYECRCMGEEKEMWNFGEKYARF [I7M] is lower in protein stability index: 2.12 for the first, 1.72 for the second.

Compared with TYECRCGGEEKEMWNFGEKYARF [I7G], TYECRCEGEEKEMWNFGEKYARF [I7E] is higher in protein stability index: 3 for the first, 3.42 for the second.

First: TYECRCHGEEKEMWNFGEKYARF [I7H]
Second: TYECRCYGEEKEMWNFGEKYARF [I7Y]
The protein stability index of the first is higher: 3.01 for the first, 2.3 for the second.

Going from TYECRCNGEEKEMWNFGEKYARF [I7N] to TYECRCTGEEKEMWNFGEKYARF [I7T], the protein stability index rises from 2.66 to 2.98.

First: TYECRCSGEEKEMWNFGEKYARF [I7S]
Second: TYECRCLGEEKEMWNFGEKYARF [I7L]
The protein stability index of the first is higher: 2.16 for the first, 1.98 for the second.

Compared with TYECRCDGEEKEMWNFGEKYARF [I7D], TYECRCQGEEKEMWNFGEKYARF [I7Q] is higher in protein stability index: 2.87 for the first, 3.02 for the second.

Going from TYECRCIGEEKEMHNFGEKYARF [W14H] to TYECRCIGEEKEMENFGEKYARF [W14E], the protein stability index rises from 2.49 to 2.51.

Compared with TYECRCIGEEKEMCNFGEKYARF [W14C], TYECRCIGEEKEMDNFGEKYARF [W14D] is higher in protein stability index: 2.17 for the first, 2.61 for the second.

Compared with TYECRCIGEEKEMANFGEKYARF [W14A], TYECRCIGEEKEMFNFGEKYARF [W14F] is higher in protein stability index: 2.14 for the first, 2.39 for the second.

Compared with TYECRCIGEEKEMGNFGEKYARF [W14G], TYECVCIGEEKEMWNFGEKYARF [R5V] is lower in protein stability index: 2.88 for the first, 2.46 for the second.

First: TYECQCIGEEKEMWNFGEKYARF [R5Q]
Second: TYECPCIGEEKEMWNFGEKYARF [R5P]
The protein stability index of the first is lower: 1.73 for the first, 3.48 for the second.

First: TYECACIGEEKEMWNFGEKYARF [R5A]
Second: TYECNCIGEEKEMWNFGEKYARF [R5N]
The protein stability index of the first is lower: 1.66 for the first, 2.86 for the second.

First: TYECHCIGEEKEMWNFGEKYARF [R5H]
Second: TYECDCIGEEKEMWNFGEKYARF [R5D]
The protein stability index of the first is lower: 2.62 for the first, 3.07 for the second.

First: TYECGCIGEEKEMWNFGEKYARF [R5G]
Second: TYECYCIGEEKEMWNFGEKYARF [R5Y]
The protein stability index of the first is higher: 2.93 for the first, 1.35 for the second.

Compared with TYECCCIGEEKEMWNFGEKYARF [R5C], TYECICIGEEKEMWNFGEKYARF [R5I] is higher in protein stability index: 1.97 for the first, 2.8 for the second.

Compared with TYECTCIGEEKEMWNFGEKYARF [R5T], TYECFCIGEEKEMWNFGEKYARF [R5F] is lower in protein stability index: 2.31 for the first, 2.1 for the second.

Compared with TYECWCIGEEKEMWNFGEKYARF [R5W], TYECKCIGEEKEMWNFGEKYARF [R5K] is higher in protein stability index: 1.98 for the first, 2.3 for the second.

Compared with TYECSCIGEEKEMWNFGEKYARF [R5S], TYECLCIGEEKEMWNFGEKYARF [R5L] is lower in protein stability index: 2.54 for the first, 2.29 for the second.

Compared with TYECECIGEEKEMWNFGEKYARF [R5E], TYECRCIGEEKESWNFGEKYARF [M13S] is lower in protein stability index: 2.02 for the first, 1.98 for the second.

Going from TYECRCIGEEKEWWNFGEKYARF [M13W] to TYECRCIGEEKEPWNFGEKYARF [M13P], the protein stability index falls from 3.09 to 2.19.

Compared with TYECRCIGEEKEGWNFGEKYARF [M13G], TYECRCIGEEKECWNFGEKYARF [M13C] is lower in protein stability index: 2.61 for the first, 2.14 for the second.

Compared with TYECRCIGEEKEYWNFGEKYARF [M13Y], TYECRCIGEEKERWNFGEKYARF [M13R] is higher in protein stability index: 1.56 for the first, 2.11 for the second.

Compared with TYECRCIGEEKEHWNFGEKYARF [M13H], TYECRCIGEEKEDWNFGEKYARF [M13D] is lower in protein stability index: 2.24 for the first, 2.19 for the second.

Compared with TYECRCIGEEKENWNFGEKYARF [M13N], TYECRCIGEEKETWNFGEKYARF [M13T] is lower in protein stability index: 2.31 for the first, 2.18 for the second.

First: TYECRCIGEEKEQWNFGEKYARF [M13Q]
Second: TYECRCIGEEKEVWNFGEKYARF [M13V]
The protein stability index of the first is lower: 1.71 for the first, 2.03 for the second.

Going from TYECRCIGEEKEAWNFGEKYARF [M13A] to TYECRCIGEEKEIWNFGEKYARF [M13I], the protein stability index rises from 1.74 to 2.07.

First: TYECRCIGEEKEKWNFGEKYARF [M13K]
Second: TYECRCIGEEKEFWNFGEKYARF [M13F]
The protein stability index of the first is higher: 1.87 for the first, 1.23 for the second.

In the case of TYECRCIGEEKELWNFGEKYARF [M13L], the protein stability index is reported as 2.48.
